Test: soluble on expression in E. coli; label from the status in PepcDB or PDB records
In the case of “MTKSLFRQSFLTDTLDVHIDVAPAEQVLSNGVQLKLYQRGVLEVIPENPTQETKNIIISCGIHGDETAPMELVDSIIKDIESGFQKVDARCLFIIAHPESTLAHTRFLEENLNRLFDEKEHEPTKELAIADTLKLLVRDFYQDTEPKTRWHLDLHCAIRGSKHYTFAVSPKTRHPVRSKALVDFLDSAHIEAVLLSNSPSSTFSWYSAENYSAQALTMELGRVARIGENALDRLTAFDLALRNLIAEAQPEHLSKPCIKYRVSRTIVRLHDDFDFMFDDNVENFTSFVHGEVFGHDGDKPLMAKNDNEAIVFPNRHVAIGQRAALMVCEVKTRFEEGELVYDLEHHHHHH”, the “soluble on expression in E. coli” value is reported as “soluble”.
For “MTKSQIMDLSNFYQDTDYPSGRLIALLILSLGLTPAEIANLKKADFDTTFNILSIEKSQMKRILKLPEDLLPFLLESLEEDGDLVFEHNGKPYSRQWFFNQLTDFLNEKNEQQLTAQLLREQFILKQKENGKTMTELSRLLGLKTPITLERYYRLEHHHHHH”, the “soluble on expression in E. coli” value was “not soluble”.
With “MTKTWEQLSAIQPIGVKMLMNSIAKERISHAYLLEGEKGTGKFATAIQMAKSFLCSQRNRVEPCHVCTNCKRIDSGNHPNLHIVKPDGLSIKKQQIHDLQEEFSKTGLEANKKVYIIEHADRMTANAANALLKFLEEPSSDTTAILLTEQSHQILNTILSRCQVVTFRPLPTESLIRRLQDEGITVSLSTLAAQLTNSFDEALTLCNDEWFAQARALVIKLCEALEKDKASIFFVQEKWGKHFGEKEQLQQGLDMLLLIYKDLLYVQLGEEDRLVFREQKEMFESFSYAQKRIVSALFNILEAKNRINANVNAQLVFEQLVLRLQEG” the “soluble on expression in E. coli” value was “not soluble”.
With “MTKVQKRLFEVADKQYALFQAKLIPNIPQERVIGVRVPVLRKIAREFEKEPECRDFLNTLPHAYYDENMLHSILLSNVKNYEECIAAVEAFLPYVDNWAVCDTLRPKVFGKHKDKLLPRIKDWIASDKTYTCRFGIGMLMMHYLDKDFKPEYLELPQKVDSEEYYVKMMIAWFYATALANQWDATIPYIEEHRLSDWVHKKTIQKACESYRITDEQKAYLKTLR” the “soluble on expression in E. coli” value was “not soluble”.
With “MTLDANSAPVRDMASAHFSPGEDCRRKIRDLCRQARISVDICVFTISDDQLSDEIRACHQRGVAVRVISDSEKQFDVGSDIAALREAGVPVRIDDTPFHMHHKFAVFDGRTLLNGSFNWTRSATTGNEENLLVIDHPQLVASYLKEFNELWSRYAPRLEHHHHHH” the “soluble on expression in E. coli” value was “not soluble”.
With “MTLEISNDYGKIDISNEVIASVVGGKAVECYGIVGMASRQQVRDGIAEILGHENYAKGIKVTENNGVVDIDMYIIVSYGVKISEVANNVQSTVKYTLEKSLNVSVNSINIYVQGVRVNNTGKKALEHHHHHH” the “soluble on expression in E. coli” value was “not soluble”.
With “MTLETAFMLPVQDAQHSFRRLLKAMSEPGVIVALHQLKRGWQPLNIATTSVLLTLADNDTPVWLSTPLNNDIVNQSLRFHTNAPLVSQPEQATFAVTDEAISSEQLNALSTGTAVAPEAGATLILQVASLSGGRMLRLTGAGIAEERMIAPQLPECILHELTERPHPFPLGIDLILTCGERLLAIPRTTHVEVC” the “soluble on expression in E. coli” value was “soluble”.
For “MTLGELREEVWNALARYDLALHPTPPHGHHPNFLGARRAAERLLKTPEFQGARRVLAGMDAVLKPLREEALRQGKELLLPHPDRPGEFLLLRDVDPRKLKRVREAYRFGVRVALEEATPDLVLIGAVAVDEEGGWVGKGYGFPQSWLRVEAPFATLAHPVMVYPRLPVPPERRVDLIATPQRLLRLG”, the “soluble on expression in E. coli” value was “soluble”.
For “MTLLLPRRRFSALLDHIKNWTSSIRADKQYRSFSTGDLVSPSQPSAFEPDFMEMEFGATPTTSSLPSHFDDNDLVPVEFKKSGVKLIPQGTRKAEKAKKFGSFEELSKVKLEDIHRAQSWFFVDVDPKSAERILMSNGFSDSSFLISFFRQKYVLSIWRKTKVEHLVIRNYQKKNGTMAFQLDIDRSFKNLVELTEYYTKNKSYVLCTKLSKGVSRPRRNPDTRTRA”, the “soluble on expression in E. coli” value was “not soluble”.
With “MTLSGGTIDILKTRSLAKLQGSKEVMKQKLEIPIHGSVTDNIFSEVRDSFRRNFTEGWEKAGAAFCVIHKGKVIVDLWGGYADKECFKEWKEDTISTIFSCTKSVTAICFAILVDRGLLKYSDKVTKYWPEFGQNGKQDITIEMVLSHTAGLPYFPGVKFTEEDLTDNNKLSHMIENLKPVFAPGTRTAYHALTFGWLTDQIFRRVDSQKRTVGQFFKDEIATKHYIDIHIGECSNEENRLARLFKCPATLVSREIAYDRSILKLARYYYNPRGLFAAARRNLSLHGSDFTMFNNSDLRVVGQPAVNGIGSARAMAQLHQLVLDGTLLSKETFDIIKHPRKMTSFDYLIGEPQNKEHGFTYFKSPLNTWQFGHPGVGGQMVRVDVENDLIVAYLTNGMKTAGCEDHVFTFNRLQRKVYECLKRIPKFELPPPEDIVENE” the “soluble on expression in E. coli” value was “not soluble”.
With “MTLTASSSSRAVTNSPVVVALDYHNRDDALAFVDKIDPRDCRLKVGKEMFTLFGPQFVRELQQRGFDIFLDLKFHDIPNTAAHAVAAAADLGVWMVNVHASGGARMMTAAREALVPFGKDAPLLIAVTVLTSMEASDLVDLGMTLSPADYAERLAALTQKCGLDGVVCSAQEAVRFKQVFGQEFKLVTPGIRPQGSEAGDQRRIMTPEQALSAGVDYMVIGRPVTQSVDPAQTLKAINASLQRSA” the “soluble on expression in E. coli” value was “soluble”.
In the case of “MTMNHDDRLRNRYEACRSGMQELDMLRAKHTLLIQNLRSRLPIIPGSLDDVQTREKKTRDVFLDRFSLQSVDSGISSQNTISSTRSSTPEDFKTSNRHSNIYENSSTTMNYSTFRKMSLESTHSSVSHSMQNDVEKTSFAPPVITSRSCHRGAWKTSPQRIRPKSMFDSTTSNTEYLFSKPPRHPIDLTKERRSAFTVLNQSSKRHSSIEPSLPSTLSQLSLNDEAKTPQKAEVIRWNKQKADAMFRANVVYVSSTEQPTKPAPLRFSPARSPPVRRALPIELKPTQHFAQPCKIRSPKLNTKTVFAAKPIAVRPSISPKVAQRSTWLQSQPL”, the “soluble on expression in E. coli” value is reported as “not soluble”.
In the case of “MTMPYYASAEQIMRDRSELARKGIARGRSVVVLTFRDGVLFVAENPSTALHKVSELYDRLGFAAVGKYNEFENLRRAGIVHADMRGYSYDRRDVTGRSLANAYAQTLGTIFTEQPKPYEVEICVAEVGRVGSPKAPQLYRITYDGSIVDEQHFVVMGGTTEPIATAMRESYRADLDLEAAVGIAVNALRQGGAGEGEKRNVDVASLEVAVLDQSRPRRAFRRIAGTALEQLVPAEPAAASESAPEPKPDTETKPADTQD”, the “soluble on expression in E. coli” value is reported as “soluble”.
In the case of “MTNATIAPTTTAAPVTKSVDAPTADENTPLFSPSLISPDVLAVLPADYTIRPLCRSDYKRGYLDVLRVLTTVGDINEEQWNSRYEWIRARSDEYYLLVVCDGEGRIVGTGSLVVERKFIHSLGMVGHIEDIAVEKGQQGKKLGLRIIQALDYVAEKVGCYKTILDCSEANEGFYIKCGFKRAGLEMAHYY”, the “soluble on expression in E. coli” value is reported as “soluble”.
In the case of “MTNDDKCTSFFDKNYQTPEFIENKKRQAQQGRRRFLKSAAGMGALASLPALSVSAKAQTSLNELLKTLVKTDPWLTLDATLNQLLPSSPTGPSASEIRATAYLYQVMTVQPTEQDEKDFILKGVGWLNGYANSEKSANFAQLSFADKEQLLRGISNSTAGQNWLNTLLGYIFQAMLSPASYGGNPDGIGWAWLEHQAGFPMPEKGQRYFELPTRARIDLISRVNYDAKRLASSRNKSHQGTKKS”, the “soluble on expression in E. coli” value is reported as “not soluble”.
With “MTNDKMLARIAALLRQAEGTDNPHEADAFMSTAQRLATAASIDLAVARSHAGNRSPAQAPTQRTITIGAAGTRGLRTYVQLFVLIAAANDVRCDVASNSTFVYAYGFAEDIDTSHALYASLVVQMVRASDAYLASGAHRPTPTITARLNFQLAFGARVGQRLADAREQTRQEATKDRDRPPGTAIALRDKDIELHEYYRRSSKARGAWRASRATAGYSSAARRAGDRAGRQARLGNNPELPGARAALGR” the “soluble on expression in E. coli” value was “soluble”.
With “MTNGQSPAGGVQSVERAFDILEIMASAGGSIGVSELADLAGLPLPTIHRLIRTLMNRGYVRQLPTRRYALGPKLIRLGESATQLIGAWSRPHLSELVRGTGETANMAVLDGTMAVYVAQVPSEHAMRMFTEVGRRVYPHCTGVGKAILMQLSNDAVRSLVGRTGMTTYTENSLTDPDMLIADLELSRNRGFAIDEGEQEIGVRCFSVPVPNAPTPTAISVSGPAARVTLESADHIVPLLKRVAKELGTEFDKNAAL” the “soluble on expression in E. coli” value was “not soluble”.
With “MTNIIKIRASVFIPMSWTEAKMDMETGQVIQFEGDSREFTPHAVNTMRSRVEQEVVVDFYKQEVFSYANTGITTEKVISPDGSVNKRTGKASTENIVCTDIVWNSGGVQFKMSASASNPLNVYAPPVDYVLNVCVKKDGSIDVQGEHDGFPCFEFYKQVDFGPFEKIYTHDFRETGDTAAALGGNMDYSFTKRL” the “soluble on expression in E. coli” value was “soluble”.
For “MTNIRVAIVGYGNLGRSVEKLIAKQPDMDLVGIFSRRATLDTKTPVFDVADVDKHADDVDVLFLCMGSATDIPEQAPKFAQFACTVDTYDNHRDIPRHRQVMNEAATAAGNVALVSTGWDPGMFSINRVYAAAVLAEHQQHTFWGPGLSQGHSDALRRIPGVQKAVQYTLPSEDALEKARRGEAGDLTGKQTHKRQCFVVADAADHERIENDIRTMPDYFVGYEVEVNFIDEATFDSEHTGMPHGGHVITTGDTGGFNHTVEYILKLDRNPDFTASSQIAFGRAAHRMKQQGQSGAFTVLEVAPYLLSPENLDDLIARDV”, the “soluble on expression in E. coli” value was “soluble”.
With “MTNLTNYHSHCLYCDGRANMEDFIRFAISEGFSSYGISSHAPLPFSTAWTMEWDRMDDYLSEFARLKEKYADKIELAIGLEIDYLNEESHPAIPRFQELPLDYRIGSVHMLYSPQGKVVDIDTPADIFRQLIDAHFEGDLDYVVHLYYKNLLRMVELGGFDILGHADKMHYNASCYRPGLLDEPWYDALVRDYFAEIARHGYIVEINTKSYHDLGTFYPNERYFPLLKELGIRVQVNSDAHYPERINNSRAEALAALKKVGFDTVVEWHGGQWKDMPLLQ” the “soluble on expression in E. coli” value was “not soluble”.
In the case of “MTNNSGNKVQDIMTKNVATISPNQTVQEAAQIMSQKNIGALPVVENGQVKGMITDRDITLRVSSQGKDPSTVKVAEVMTNQVVTGTPNMSVQEAANVMAQHQVRRLPIVENNQLQGIVALGDIATNSASNEAAEQALTNISEPSQPQG”, the “soluble on expression in E. coli” value is reported as “soluble”.
With “MTNRYVVIFTVGPVQSFIASARKTEDFWSGSYILSHLVREAIKRFYQFDANCEMIYPLVTEKELRSPSQRDVHIASIPNRLTVIMEGTEEEVCGWLREAEQDVCNVFLDFCFQAVRRVFPHLTDHEQELLERMVEQQVRSFLEIYWVAEPYEPSMSFREVRERAERRLGALKNEKHYIPVSQQGLVCSVCKEREALRLEEIGEFDHYGEIKKKTMSLWQRRAVKFQGTGGDEEDDRRAGRIKDNEFLCGICLGKRAARDYFADLFGTSFPSFPSVLDIGQGDYYAVLLMDGDDMGKWFSGERKDEYSRTSQKLARFAKETVPWIVQERCKGKLVYAGGDDVLAFVPVETALKAAEMLRLAFADERQGLGSGATASFGVVIAHKKAPLQHVLNAARALEQKAKRYYNDKTAQRKDALALAVHTRSGEISEAVLPWIVGEKMVSKLLEEWLGLLKTSLSPNFIFHFASAFAPLLHEKDCPKWENRDMLATELRRLLRRSVKEGSCLDAQDIARYTSTLLVLHEAVRSSYDFLHLLKMLTFFKRSKGRG” the “soluble on expression in E. coli” value was “not soluble”.
With “MTNWKPLVSVITPSYNARDYIEDTVHSVLDQSHPHWEMIIVDDCSTDGTRDILQQYEKIDERIHVVYLEENSGAAVARNKALERAQGRYVAFLDSDDKWKKDKLEKQLEFMMERSCAFSFTGYSLMAQDGTPLDKFIHAPESLTYDDALKNTIIGCLTVMIDREQTGQIQMPNIRTRQDLATWLSLLKKGFTAYGMNECLAEYRLVNNSISSNKWKAAKKTWFVYREIERLHFMKATWCFVQYAKNAVKKRL” the “soluble on expression in E. coli” value was “soluble”.
